Assay results: patent US20210087288A1 (Genentech, published 2021)
Where “and” joins values, the source holds several entries; their conditions need not be identical. Identical values can stand only once.

T1: Cyno TfR extracellular domain (analogous ecd construct) (cynomolgus monkey, UniProt Q5RDH6 87-760 (Pongo abelii entry))
T1 construct: it is not expressly said to be the cyno construct; also called purified cyno TfR
T1 chain: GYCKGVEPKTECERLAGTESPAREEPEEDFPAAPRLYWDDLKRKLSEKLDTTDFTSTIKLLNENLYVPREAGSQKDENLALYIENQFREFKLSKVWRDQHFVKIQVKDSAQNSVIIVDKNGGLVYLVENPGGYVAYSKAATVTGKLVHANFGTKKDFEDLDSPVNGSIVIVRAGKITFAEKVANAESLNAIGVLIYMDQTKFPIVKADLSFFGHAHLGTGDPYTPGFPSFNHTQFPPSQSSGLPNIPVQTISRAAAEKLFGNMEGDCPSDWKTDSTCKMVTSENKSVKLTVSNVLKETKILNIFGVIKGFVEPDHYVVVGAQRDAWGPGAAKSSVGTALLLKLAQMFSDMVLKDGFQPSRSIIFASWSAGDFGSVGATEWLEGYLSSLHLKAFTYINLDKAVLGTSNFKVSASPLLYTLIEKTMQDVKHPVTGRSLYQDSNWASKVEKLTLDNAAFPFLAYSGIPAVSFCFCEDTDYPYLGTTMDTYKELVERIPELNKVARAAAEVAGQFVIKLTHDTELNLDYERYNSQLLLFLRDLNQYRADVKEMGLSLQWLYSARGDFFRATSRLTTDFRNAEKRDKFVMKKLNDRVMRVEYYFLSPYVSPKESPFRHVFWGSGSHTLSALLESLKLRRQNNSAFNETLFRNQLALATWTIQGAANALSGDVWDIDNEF


Experiments:
[1] = molecular target: T1, Cyno TfR extracellular domain …; assay: ratio of KD on cyno TfR to KD on human TfR, SPR
Description: (§1) Antibody affinities were measured using surface plasmon resonance (“SPR”) (Biacore™ GE Healthcare). Anti-His antibody (Qiagen) was coupled onto four different flow cells of a BIACORE™ CM5 sensor chip (Biacore, Inc., Piscataway, N.J.) at between 6000 and 8000 RU. Immobilization was achieved by random coupling through amino groups using a protocol provided by the manufacturer. 10×HBS-P (Biacore, Inc., Piscataway, N.J.) was diluted in water and served as the dilution and running buffer. Purified human or cyno TfR was captured, followed by a 3-fold dilution series of IgG or Fab that was injected at a flow rate of […] using the single cycle kinetics method. Affinity constants were determined using a simple 1:1 Langmuir binding model or using a steady state model when kₒₙ or koff was beyond the detection limit. The equilibrium dissociation constant (KD) was calculated as the ratio of […].
(§2) The affinity of humanized variants for human and cyno TfR was determined by SPR as IgG (FIG. 4E). Selected clones were also analyzed by SPR as Fab to assess monovalent affinity (Table 7). In both cases, the SPR experiments were performed as described above.

[2] = molecular target: T1, Cyno TfR extracellular domain …; assay: SPR, captured His-TfR, Fab analyte
Description: as §1, §2

[3] = molecular target: T2, Human TfR extracellular domain (ecd) containing an N-terminal His tag (human, UniProt P02786 89-760); assay: SPR, captured His-TfR, Fab analyte
T2 construct: Biotinylated in some ELISAs; also called huTfR; HuTfR
Description: as §1, §2

[4] = molecular target: T1, Cyno TfR extracellular domain …; assay: SPR (Biacore), IgG, TfR captured by anti-His
Description: as §1, §2

[5] = molecular target: T2, Human TfR extracellular domain (ecd) …; assay: SPR (Biacore), IgG, TfR captured by anti-His
Description: as §1, §2

Row | Binder | Cy/hu ratio [1] | koff [2] | kon [2] | koff [3] | kon [3] | Kd [4] | Kd [5]
1 | Hu15G11.HC32A Fab (Fab, V domains shown, Purified Fab; also called Y32A Fab) VH: EVQLVQSGAEVKKPGASVKVSCKASGYTFTSAWMHWVRQAPGQRLEWIGEINPTNGRTNYIEKFKSRATLTVDKSASTAYMELSSLRSEDTAVYYCARGTRAYHYWGQGTMVTVSS VL: DIQMTQSPSSLSASVGDRVTITCRASDNLYSNLAWYQQKPGKSPKLLVYDATNLADGVPSRFSGSGSGTDYTLTISSLQPEDFATYYCQHFWGTPLTFGQGTKVEIK | 6.4 | 0.00851 s⁻¹ | 177000 M⁻¹ s⁻¹ | 0.00178 s⁻¹ | 238000 M⁻¹ s⁻¹ | – | –
2 | Hu15G11.HC52A Fab (Fab, V domains shown, Purified Fab; also called N52A Fab) VH: EVQLVQSGAEVKKPGASVKVSCKASGYTFTSYWMHWVRQAPGQRLEWIGEIAPTNGRTNYIEKFKSRATLTVDKSASTAYMELSSLRSEDTAVYYCARGTRAYHYWGQGTMVTVSS VL: DIQMTQSPSSLSASVGDRVTITCRASDNLYSNLAWYQQKPGKSPKLLVYDATNLADGVPSRFSGSGSGTDYTLTISSLQPEDFATYYCQHFWGTPLTFGQGTKVEIK | 2.6 | 0.0567 s⁻¹ | 487000 M⁻¹ s⁻¹ | 0.0236 s⁻¹ and 0.0196 s⁻¹ | 530000 M⁻¹ s⁻¹ and 564000 M⁻¹ s⁻¹ | – | –

Second part, the binder after the results:

Row | Cy/hu ratio [1] | koff [2] | kon [2] | koff [3] | kon [3] | Kd [4] | Kd [5] | Binder
3 | – | – | – | – | – | 68.1 nM | 4.25 nM | hu16F6.v2 (antibody, V domains shown) VH: EVQLVESGPGLVKPSETLSLTCTVSGNSITSEYAWNWIRQPPGKGLEWIGYISYSGTTSYNPSLKSRVTISRDTSKNQLSLKLSSVTAADTAVYYCARYGYGNPATRYFDVWGQGTLVTVSS VL: DIQMTQSPSSLSASVGDRVTITCRASKSISKYLAWYQQKPGKAPKLLLYSGSTLQSGVPSRFSGSGSGTDYTLTISSLQPEDFATYYCQQHNEYPWTFGQGTKVEIK
4 | – | – | – | – | – | 1.2 nM | – | hu7A4.v5 (antibody, V domains shown) VH: EVQLVQSGAEVKKPGASVKVSCKASGYTFTDYAMHWVRQAPGQGLEWMGGISTYFGRTNYNQKFKGRVTMTRDTSISTAYMELSRLRSDDTAVYYCARGLSGNYVMDYWGQGTTVTVSS VL: DIVMTQSPDSLAVSLGERATINCRASESVDSYGNSFMHWYQQKPGQPPKLLIYRASNLESGIPDRFSGSGSGTDFTLTISSLQAEDVAVYYCQQSNEGPPTFGQGTKLEIK
5 | – | – | – | – | – | 12.3 nM | – | hu7A4.v8 (antibody, V domains shown) VH: EVQLVQSGAEVKKPGASVKVSCKGSGYTFTDYAMHWVRQAPGQGLEWMGGISTYFGRTNYNQKFKGRVTMTVDTSISTAYMELSRLRSDDTAVYYCARGLSGNYVMDYWGQGTTVTVSS VL: DIVMTQSPDSLAVSLGERATINCRASESVDSYGNSFMHWYQQKPGQPPKLLIYRASNLESGIPDRFSGSGSGTDFTLTISSLQAEDVAVYYCQQSNEGPPTFGQGTKLEIK
